Test results as given in US20210261665A1 (TAYU HUAXIA BIOTECH MEDICAL GROUP, published 2021).
Each block holds one binder with its values, some of them ahead of it.

What was measured:
hPD-1 mIg fusion protein = target: T1, hPD-1 mIg fusion protein (human; mouse, UniProt Q15116 25-170); experiment: SPR Biacore T100, hPD-1mIg immobilised by amine coupling, antibody as analyte
T1 construct: extracellular domain; not shown: CH2-CH3 domain of mouse IgG2a heavy chain (plasmid pmIgG)
Description: Binding affinity and kinetics determination of the humanized antibodies: The binding affinity and kinetics of the humanized PD-1 mAbs interact with hPD-1 protein was assessed with Biacore T100 (GE Healthcare Life Sciences). […] Nine different concentrations were tested for each sample. Detailed binding kinetic parameters (association rate, Ka, dissociation rate, Kd, and affinity constant, KD) can be determined by full kinetic analysis.

[1] = target: T2, mPD-1 protein (ELISA coat) (mouse, UniProt Q02242 25-167, limits assumed); experiment: ELISA against mPD-1 ECD-Fc protein (plate coat)
T2 sequence (looked up): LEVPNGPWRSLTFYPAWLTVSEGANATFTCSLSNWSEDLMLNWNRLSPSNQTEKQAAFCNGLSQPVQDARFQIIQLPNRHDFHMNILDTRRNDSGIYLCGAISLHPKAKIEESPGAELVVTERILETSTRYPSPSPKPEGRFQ
Description: (§1) The bindings of the antibodies to hPD-1 and the cross-reactivity to mPD-1 proteins were tested by ELISA. A serial dilution of test antibodies were added to ELISA plates pre-coated with 1 μg/ml hPD-1 or mPD-1. HRP conjugated goat anti-human IgG or goat anti-mouse IgG antibody was then added, followed by the addition of substrate Tetramethylbenzidine (TMB) and quantification with a SpectraMax Plus 384 Microplate Reader (Molecular Device, LLC., Sunnyvale, Calif.) at 450 nm wavelength.

Biotin-hPD-1 [2] = target: T3, Biotin-hPD-1 (human, UniProt Q15116 25-167, limits assumed, biotin label, site not stated); experiment: competitive ELISA: competitive Ab 15 µg/ml with Biotin-hPD-1; coating Ab TY101-01-09 1 µg/ml
Description: (§2) A serial dilution of competing antibodies and Biotin-hPD-1 were added to ELISA plates pre-coated with 1 μg/ml a test antibody. HRP conjugated streptavidin was then added, followed by the addition of substrate TMB and quantification with a SpectraMax Plus 384 Microplate Reader at 450 nm wavelength.

human PD-1 on cells [3] = target: T4, human PD-1 on cells (human, UniProt Q15116 25-288); experiment: flow cytometry on CHOK1-hPD-1 cells
T4 construct: whole, on cells; also called hPD-1; CHO/hPD-1

Biotin-hPD-1 [4] = target: T3, Biotin-hPD-1; experiment: competitive ELISA: competitive Ab 15 µg/ml with Biotin-hPD-1; coating Ab TY101-4G1 1 µg/ml
Description: as §2

[5] = target: T5, cynomolgus monkey PD-1 on cells (cynomolgus monkey, UniProt B0LAJ3 25-288); experiment: flow cytometry on CHOK1-cPD-1 cells
T5 construct: also called cPD-1; CHOK1-cPD-1

human PD-1 on cells [6] = target: T4, human PD-1 on cells; experiment: cell based RBA (flow cytometry): blocking of Biotin-hPD-L2 binding to CHOK1-hPD-1 cells
Description: (§3) The cells were then incubated with Alexa 488 labeled Streptavidin and analyzed using a FACSCanto II.

Biotin-hPD-1 [7] = target: T3, Biotin-hPD-1; experiment: competitive ELISA: competitive Ab 15 µg/ml with Biotin-hPD-1; coating Ab Nivolumab 1 µg/ml
Description: as §2

human PD-1 on cells [8] = target: T4, human PD-1 on cells; experiment: cell based RBA (flow cytometry): blocking of Biotin-hPD-L1 binding to CHOK1-hPD-1 cells
Description: as §3

Biotin-hPD-1 [9] = target: T3, Biotin-hPD-1; experiment: competitive ELISA: competitive Ab 15 µg/ml with Biotin-hPD-1; coating Ab Pembrolizumab 1 µg/ml
Description: as §2

[10] = target: hPD-1 protein (ELISA coat) (human, UniProt Q15116 25-167, limits assumed); experiment: ELISA against hPD-1 ECD-Fc protein (plate coat)
Description: as §1

Biotin-hPD-1 [11] = target: T3, Biotin-hPD-1; experiment: competitive ELISA: competitive Ab 15 µg/ml with Biotin-hPD-1; coating Ab TY101-04-T3-05 1 µg/ml
Description: as §2

T1 sequence (Q15116 25-170): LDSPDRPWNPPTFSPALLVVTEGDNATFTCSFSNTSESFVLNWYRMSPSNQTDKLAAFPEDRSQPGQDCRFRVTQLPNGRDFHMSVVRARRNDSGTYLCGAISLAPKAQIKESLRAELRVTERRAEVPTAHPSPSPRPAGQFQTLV
T5 sequence (B0LAJ3 entry or part of it limits assumed): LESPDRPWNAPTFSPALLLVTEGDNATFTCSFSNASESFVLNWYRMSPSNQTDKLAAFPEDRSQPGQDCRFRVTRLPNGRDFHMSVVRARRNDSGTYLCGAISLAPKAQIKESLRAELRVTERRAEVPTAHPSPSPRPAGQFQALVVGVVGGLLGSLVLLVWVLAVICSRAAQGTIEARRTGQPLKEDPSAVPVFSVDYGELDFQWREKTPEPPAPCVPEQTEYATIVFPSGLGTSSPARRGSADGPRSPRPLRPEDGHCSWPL
T4 sequence (Q15116 25-288): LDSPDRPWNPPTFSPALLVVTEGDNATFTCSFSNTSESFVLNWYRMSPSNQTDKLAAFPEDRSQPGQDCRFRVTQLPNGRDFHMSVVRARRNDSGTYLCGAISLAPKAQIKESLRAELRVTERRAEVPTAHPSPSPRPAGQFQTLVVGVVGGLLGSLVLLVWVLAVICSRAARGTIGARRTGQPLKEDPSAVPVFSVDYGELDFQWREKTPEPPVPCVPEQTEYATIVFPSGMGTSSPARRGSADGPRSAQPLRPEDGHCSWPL
Chain of hPD-1 protein (ELISA coat) (Q15116 25-167 limits assumed): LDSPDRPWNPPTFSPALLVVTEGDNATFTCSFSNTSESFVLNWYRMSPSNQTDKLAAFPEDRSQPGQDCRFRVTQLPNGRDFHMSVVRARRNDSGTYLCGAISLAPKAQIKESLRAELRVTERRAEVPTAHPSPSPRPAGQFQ
T3 sequence (Q15116 25-167 limits assumed): as above

- Kd (hPD-1 mIg fusion protein): 0.0989 nM
- koff (hPD-1 mIg fusion protein): 2.85e-05 s⁻¹
- kon (hPD-1 mIg fusion protein): 288000 M⁻¹ s⁻¹
B1: chimeric parental antibody (antibody, human IgG4 S228P, kappa, V domains shown)
VH: EVKLVESGGGLVQPGGSLKLSCAASGFTFSSYTMSWIRQTPEKRLEWVAYISHGGGDTYYPDTVKGRFTISRDNAKNTLYLQMSSLKSEDTAMYYCARHSGYERGYYYVMDYWGQGTSVTVSS
VL: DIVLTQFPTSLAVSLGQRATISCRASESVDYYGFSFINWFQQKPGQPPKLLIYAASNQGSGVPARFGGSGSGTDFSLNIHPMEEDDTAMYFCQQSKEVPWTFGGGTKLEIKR
notes: also called chimeric antibody

- Kd (hPD-1 mIg fusion protein): 0.291 nM
- koff (hPD-1 mIg fusion protein): 6.48e-05 s⁻¹
- kon (hPD-1 mIg fusion protein): 218000 M⁻¹ s⁻¹
B8: Variant 7 (antibody, V domains shown)
VH: EVKLLESGGGLVQPGGSLRLSCAASGFTFSSYTMSWVRQAPGKGLEWVSYISHGGGDTYYPDSVKGRFTISRDNSKNTLYLQMNSLRAEDTAVYYCARHSGYERGYYYVMDYWGKGTTVTVSS
VL: DIVMTQSPDSLAVSLGERATINCKSSESVDYYGFSFLNWFQQKPGQPPKLLIYAASNRESGVPDRFSGSGSGTDFTLTISSLQAEDVAVYYCQQSKEVPWTFGQGTKLEIK
notes: Humanized; VH variant c, VK variant a; Constant regions not spelled out; also called mutant combination 7

- Kd (hPD-1 mIg fusion protein): 0.123 nM
- koff (hPD-1 mIg fusion protein): 3.2e-05 s⁻¹
- kon (hPD-1 mIg fusion protein): 259000 M⁻¹ s⁻¹
B11: Variant 9 (antibody, V domains shown)
VH: EVKLLESGGGLVQPGGSLRLSCAASGFTFSSYTMSWVRQAPGKGLEWVSYISHGGGDTYYPDSVKGRFTISRDNSKNTLYLQMNSLRAEDTAVYYCARHSGYERGYYYVMDYWGKGTTVTVSS
VL: DIQLTQSPDSLSVSLGERATINCKASESVDYYGFSFLNWFQQKPGQPPKLLIYAASNRQSGVPDRFSGSGSGTDFTLTISSLQAEDVAVYFCQQSKEVPWTFGQGTKLEIK
notes: Humanized; VH variant c, VK variant c; Constant regions not spelled out; also called mutant combination 9

The remaining lines, values behind:

B2: Variant 2 (antibody, V domains shown)
VH: EVQLVESGGGLVQPGGSLRLSCAASGFTFSSYTMSWVRQAPGKGLEWVSYISHGGGDTYYADSVKGRFTISRDNSKNTLYLQMNSLRAEDTAVYYCARHSGYERGYYYVMDYWGQGTLVTVSS
VL: DIVMTQSPDSLAVSLGERATINCKASESVDYYGFSFLNWFQQKPGQPPKLLIYAASNRESGVPDRFSGSGSGTDFTLTISSLQAEDVAVYYCQQSKEVPWTFGQGTKLEIKR
notes: Humanized; VH variant a, VK variant b; Constant regions not spelled out; chimeric parent has human IgG4-S228P and human kappa; also called mutant combination 2
- Kd (hPD-1 mIg fusion protein): 0.363 nM
- koff (hPD-1 mIg fusion protein): 7.64e-05 s⁻¹
- kon (hPD-1 mIg fusion protein): 210000 M⁻¹ s⁻¹

B3: TY101-4G1 (antibody, V domains shown)
VH: EVQLVESGGGLVQPGGSLRLSCAASGFTFSSYTMSWVRQAPGKGLEWVSYISHGGGDTYYADSVKGRFTISRDNSKNTLYLQMNSLRAEDTAVYYCARHSGYERGYYYVMDYWGQGTLVTVSS
VL: DIQLTQSPDSLSVSLGERATINCKASESVDYYGFSFLNWFQQKPGQPPKLLIYAASNRQSGVPDRFSGSGSGTDFTLTISSLQAEDVAVYFCQQSKEVPWTFGQGTKLEIKR
notes: also called TY101 clone TY101-4G1
- Max OD450 [1]: 1.33
- binding result [1]: no binding (tested: 100 nM)
- Inhibition (%) (Biotin-hPD-1 [2]): 94%
- EC50 (human PD-1 on cells [3]): 0.94 nM
- Max MFI (human PD-1 on cells [3]): 23700
- Inhibition (%) (Biotin-hPD-1 [4]): 95%
- EC50 [5]: 1.46 nM
- Max MFI [5]: 20700
- IC50 (human PD-1 on cells [6]): 2.33 nM
- Inhibition rate (human PD-1 on cells [6]): 94.7%
- Inhibition (%) (Biotin-hPD-1 [7]): 94%
- IC50 (human PD-1 on cells [8]): 1.47 nM
- Inhibition rate (human PD-1 on cells [8]): 99.5%
- Inhibition (%) (Biotin-hPD-1 [9]): 94%
- EC50 [10]: 0.15 nM
- Max OD450 [10]: 3.01
- Inhibition (%) (Biotin-hPD-1 [11]): 94%

B4: Variant 5 (antibody, V domains shown)
VH: EVQLVESGGGLVQPGGSLRLSCAASGFTFSSYTMSWVRQAPGKGLEWVSYISHGGGDTYYPDSVKGRFTISRDNSKNTLYLQMNSLRAEDTAVYYCARHSGYERGYYYVMDYWGQGTLVTVSS
VL: DIVMTQSPDSLAVSLGERATINCKASESVDYYGFSFLNWFQQKPGQPPKLLIYAASNRESGVPDRFSGSGSGTDFTLTISSLQAEDVAVYYCQQSKEVPWTFGQGTKLEIKR
notes: Humanized; VH variant b, VK variant b; Constant regions not spelled out; chimeric parent has human IgG4-S228P and human kappa; also called mutant combination 5
- Kd (hPD-1 mIg fusion protein): 0.329 nM
- koff (hPD-1 mIg fusion protein): 6.94e-05 s⁻¹
- kon (hPD-1 mIg fusion protein): 211000 M⁻¹ s⁻¹

B5: Variant 8 (antibody, V domains shown)
VH: EVKLLESGGGLVQPGGSLRLSCAASGFTFSSYTMSWVRQAPGKGLEWVSYISHGGGDTYYPDSVKGRFTISRDNSKNTLYLQMNSLRAEDTAVYYCARHSGYERGYYYVMDYWGKGTTVTVSS
VL: DIVMTQSPDSLAVSLGERATINCKASESVDYYGFSFLNWFQQKPGQPPKLLIYAASNRESGVPDRFSGSGSGTDFTLTISSLQAEDVAVYYCQQSKEVPWTFGQGTKLEIK
notes: Humanized; VH variant c, VK variant b; Constant regions not spelled out; also called mutant combination 8
- Kd (hPD-1 mIg fusion protein): 0.358 nM
- koff (hPD-1 mIg fusion protein): 7.95e-05 s⁻¹
- kon (hPD-1 mIg fusion protein): 222000 M⁻¹ s⁻¹

B6: TY101-01-09 (antibody, V domains shown)
VH: EVQLVESGGGLVQPGGSLRLSCAASGFTFSSYTMSWVRQAPGKGLEWVSYISHGGGDTYYADSVKGRFTISRDNSKNTLYLQMNSLRAEDTAVYYCARHSGYERGYYYVMDYWGQGTLVTVSS
VL: DIQLTQSPDSLSVSLGERATINCKASESVDYYGFSFLNWFQQKPGQPPKLLIYAASNRQSGVPDRFSGSGSGTDFTLTISSLQAEDVAVYFCQQSKEVPWTFGQGTKLEIKR
notes: Compared with isotype control hIgG4; also called TY101 clone TY101-01-09
- Max OD450 [1]: 0.71
- binding result [1]: no binding (tested: 100 nM)
- Inhibition (%) (Biotin-hPD-1 [2]): 94%
- EC50 (human PD-1 on cells [3]): 0.78 nM
- Max MFI (human PD-1 on cells [3]): 23200
- Inhibition (%) (Biotin-hPD-1 [4]): 95%
- EC50 [5]: 1.13 nM
- Max MFI [5]: 21100
- IC50 (human PD-1 on cells [6]): 1.76 nM
- Inhibition rate (human PD-1 on cells [6]): 95.4%
- Inhibition (%) (Biotin-hPD-1 [7]): 93%
- IC50 (human PD-1 on cells [8]): 1.15 nM
- Inhibition rate (human PD-1 on cells [8]): 99.5%
- Inhibition (%) (Biotin-hPD-1 [9]): 93%
- EC50 [10]: 0.13 nM
- Max OD450 [10]: 3.01
- Inhibition (%) (Biotin-hPD-1 [11]): 94%

B7: Variant 1 (antibody, V domains shown)
VH: EVQLVESGGGLVQPGGSLRLSCAASGFTFSSYTMSWVRQAPGKGLEWVSYISHGGGDTYYADSVKGRFTISRDNSKNTLYLQMNSLRAEDTAVYYCARHSGYERGYYYVMDYWGQGTLVTVSS
VL: DIVMTQSPDSLAVSLGERATINCKSSESVDYYGFSFLNWFQQKPGQPPKLLIYAASNRESGVPDRFSGSGSGTDFTLTISSLQAEDVAVYYCQQSKEVPWTFGQGTKLEIKR
notes: Humanized; Constant regions not spelled out for the humanized antibodies; the chimeric parent has human IgG4-S228P and human kappa; also called mutant combination 1
- Kd (hPD-1 mIg fusion protein): 0.293 nM
- koff (hPD-1 mIg fusion protein): 6.15e-05 s⁻¹
- kon (hPD-1 mIg fusion protein): 210000 M⁻¹ s⁻¹

B9: Variant 6 (antibody, V domains shown)
VH: EVQLVESGGGLVQPGGSLRLSCAASGFTFSSYTMSWVRQAPGKGLEWVSYISHGGGDTYYPDSVKGRFTISRDNSKNTLYLQMNSLRAEDTAVYYCARHSGYERGYYYVMDYWGQGTLVTVSS
VL: DIQLTQSPDSLSVSLGERATINCKASESVDYYGFSFLNWFQQKPGQPPKLLIYAASNRQSGVPDRFSGSGSGTDFTLTISSLQAEDVAVYFCQQSKEVPWTFGQGTKLEIKR
notes: Humanized; VH variant b, VK variant c; Constant regions not spelled out; chimeric parent has human IgG4-S228P and human kappa; also called mutant combination 6
- Kd (hPD-1 mIg fusion protein): 0.0898 nM
- koff (hPD-1 mIg fusion protein): 2.23e-05 s⁻¹
- kon (hPD-1 mIg fusion protein): 248000 M⁻¹ s⁻¹

B10: Variant 4 (antibody, V domains shown)
VH: EVQLVESGGGLVQPGGSLRLSCAASGFTFSSYTMSWVRQAPGKGLEWVSYISHGGGDTYYPDSVKGRFTISRDNSKNTLYLQMNSLRAEDTAVYYCARHSGYERGYYYVMDYWGQGTLVTVSS
VL: DIVMTQSPDSLAVSLGERATINCKSSESVDYYGFSFLNWFQQKPGQPPKLLIYAASNRESGVPDRFSGSGSGTDFTLTISSLQAEDVAVYYCQQSKEVPWTFGQGTKLEIKR
notes: Humanized; VH variant b, VK variant a; Constant regions not spelled out; chimeric parent has human IgG4-S228P and human kappa; also called mutant combination 4
- Kd (hPD-1 mIg fusion protein): 0.338 nM
- koff (hPD-1 mIg fusion protein): 6.29e-05 s⁻¹
- kon (hPD-1 mIg fusion protein): ~186000 M⁻¹ s⁻¹
